This note sets out measurements from the RNAGym collection of RNA variant scans (doi:10.7554/elife.80360).

To fix the notation:
B1: CPEB3 Ribozyme (parent)
chain: GGGGGCCACAGCAGAAGCGUUCACGUCGCGGCCCCUGUCAGAUUCUGGUGAAUCUGCGAAUUCUGCUGU
B2: Hammerhead Ribozyme (parent)
chain: ACCGGAUGUGCUUUCCGGUCUGAUGAGUCCGUGAGGACGAAACAG

The variants in the first series derive from B1. In words: self-cleavage, relative activity (ratio to wild type); higher = more cleavage; co-transcriptional.
As for GGGGGCCACAGCAGAAGCGUUCACGUCGCGGCCCCUGUCAGAUUCUGGUGAAUCUGCGAAUUCUGCUAG [G68A U69G], the self-cleavage turned out to be 1.06.

GGGGGCCACAGCAGAAGCGUUCACGUCGCGGCCCCUGUCAGAUUCUGGUGAAUCUGCGAAUUCUGAGGU [C66A U67G]: the self-cleavage is 0.891.

GGGGGCCACAGCAGAAGCGUUCACGUCGCGGCCCCUGUCAGAUUCUGGUGAAUCUGCGAAUUCUGAAGU [C66A U67A]: the self-cleavage came to 0.977.

For GGGGGCCACAGCAGAAGCGUUCACGUCGCGGCCCCUGUCAGAUUCUGGUGAAUCUGCGAAUUCUCCUAU [G65C G68A], the self-cleavage was 0.678.

Regarding GGGGGCCACAGCAGAAGCGUUCACGUCGCGGCCCCUGUCAGAUUCUGGUGAAUCUGCGAAUUCUGGUAU [C66G G68A], the self-cleavage was 0.96.

For GGGGGCCACAGCAGAAGCGUUCACGUCGCGGCCCCUGUCAGAUUCUGGUGAAUCUGCGAAUUCUUCUCU [G65U G68C], the self-cleavage amounted to 0.852.

For GGGGGCCACAGCAGAAGCGUUCACGUCGCGGCCCCUGUCAGAUUCUGGUGAAUCUGCGAAUUCUAGUGU [G65A C66G], the self-cleavage is 0.797.

With GGGGGCCACAGCAGAAGCGUUCACGUCGCGGCCCCUGUCAGAUUCUGGUGAAUCUGCGAAUUCUAUUGU [G65A C66U], the self-cleavage was 0.77.

For GGGGGCCACAGCAGAAGCGUUCACGUCGCGGCCCCUGUCAGAUUCUGGUGAAUCUGCGAAUUCUGUUGA [C66U U69A], the self-cleavage is 1.03.

For GGGGGCCACAGCAGAAGCGUUCACGUCGCGGCCCCUGUCAGAUUCUGGUGAAUCUGCGAAUUCUGUUGC [C66U U69C], the self-cleavage is 1.06.

Consider GGGGGCCACAGCAGAAGCGUUCACGUCGCGGCCCCUGUCAGAUUCUGGUGAAUCUGCGAAUUCUCCGGU [G65C U67G], for which the self-cleavage was 0.905.

For the variant GGGGGCCACAGCAGAAGCGUUCACGUCGCGGCCCCUGUCAGAUUCUGGUGAAUCUGCGAAUUCUCCCGU [G65C U67C], the self-cleavage was 0.905.

On to GGGGGCCACAGCAGAAGCGUUCACGUCGCGGCCCCUGUCAGAUUCUGGUGAAUCUGCGAAUUCUGCCGG [U67C U69G], for which the self-cleavage is 1.11.

On to GGGGGCCACAGCAGAAGCGUUCACGUCGCGGCCCCUGUCAGAUUCUGGUGAAUCUGCGAAUUCUGCCGA [U67C U69A], for which the self-cleavage came out at 1.07.

Turning to GGGGGCCACAGCAGAAGCGUUCACGUCGCGGCCCCUGUCAGAUUCUGGUGAAUCUGCGAAUUCUCCUGA [G65C U69A], the self-cleavage came out at 0.828.

With GGGGGCCACAGCAGAAGCGUUCACGUCGCGGCCCCUGUCAGAUUCUGGUGAAUCUGCGAAUUCUGCUCG [G68C U69G], the self-cleavage worked out at 1.11.

For the variant GGGGGCCACAGCAGAAGCGUUCACGUCGCGGCCCCUGUCAGAUUCUGGUGAAUCUGCGAAUUCUGCUCA [G68C U69A], the self-cleavage is 1.06.

Consider GGGGGCCACAGCAGAAGCGUUCACGUCGCGGCCCCUGUCAGAUUCUGGUGAAUCUGCGAAUUCUGCGUU [U67G G68U], for which the self-cleavage was 1.1.

Turning to GGGGGCCACAGCAGAAGCGUUCACGUCGCGGCCCCUGUCAGAUUCUGGUGAAUCUGCGAAUUCUGCGCU [U67G G68C], the self-cleavage was 1.07.

Turning to GGGGGCCACAGCAGAAGCGUUCACGUCGCGGCCCCUGUCAGAUUCUGGUGAAUCUGCGAAUUCUGGUGU [C66G], the self-cleavage was 0.937.

Consider GGGGGCCACAGCAGAAGCGUUCACGUCGCGGCCCCUGUCAGAUUCUGGUGAAUCUGCGAAUUCUGAUGU [C66A], for which the self-cleavage is 0.911.

As for GGGGGCCACAGCAGAAGCGUUCACGUCGCGGCCCCUGUCAGAUUCUGGUGAAUCUGCGAAUUCUGUUGU [C66U], the self-cleavage amounted to 0.99.

With GGGGGCCACAGCAGAAGCGUUCACGUCGCGGCCCCUGUCAGAUUCUGGUGAAUCUGCGAAUUCUGCAGC [U67A U69C], the self-cleavage is 1.07.

For GGGGGCCACAGCAGAAGCGUUCACGUCGCGGCCCCUGUCAGAUUCUGGUGAAUCUGCGAAUUCUGCAGA [U67A U69A], the self-cleavage came to 0.996.

With GGGGGCCACAGCAGAAGCGUUCACGUCGCGGCCCCUGUCAGAUUCUGGUGAAUCUGCGAAUUCUGCAGG [U67A U69G], the self-cleavage turned out to be 1.04.

In the case of GGGGGCCACAGCAGAAGCGUUCACGUCGCGGCCCCUGUCAGAUUCUGGUGAAUCUGCGAAUUCUGUUCU [C66U G68C], the self-cleavage is 0.991.

Take GGGGGCCACAGCAGAAGCGUUCACGUCGCGGCCCCUGUCAGAUUCUGGUGAAUCUGCGAAUUCUACGGU [G65A U67G]: the self-cleavage came to 0.887.

As for GGGGGCCACAGCAGAAGCGUUCACGUCGCGGCCCCUGUCAGAUUCUGGUGAAUCUGCGAAUUCUACCGU [G65A U67C], the self-cleavage came out at 0.844.

For GGGGGCCACAGCAGAAGCGUUCACGUCGCGGCCCCUGUCAGAUUCUGGUGAAUCUGCGAAUUCUACAGU [G65A U67A], the self-cleavage is 0.793.

Variants of B2 are the subject of the next series. The description is as above.
As to CCCGGAUGUGCUUUCCGGUCUGAUGAGUCCGUGGGGACGAAACAG [A1C A34G], the self-cleavage is 0.385.

With CCCGGAUGUGCUUUCCGGUCUGAUGAGUCCGUGCGGACGAAACAG [A1C A34C], the self-cleavage amounted to 0.477.

For CCCGGAUGUGCUUUCCGGUCUGAUGAGUCCGUGAGGACGAAACAG [A1C], the self-cleavage came out at 0.466.

For CCCGGAUGUGCUUUCCGGUCUGAUGGGUCCGUGAGGACGAAACAG [A1C A26G], the self-cleavage was 0.302.

With CCCGGAUGUGCUUUCCGGUCUGAUGCGUCCGUGAGGACGAAACAG [A1C A26C], the self-cleavage came out at 0.338.

With CCCGGAUGUGCUUUCCGGUCUGAUGUGUCCGUGAGGACGAAACAG [A1C A26U], the self-cleavage amounted to 0.352.

With CCCGGUUGUGCUUUCCGGUCUGAUGAGUCCGUGAGGACGAAACAG [A1C A6U], the self-cleavage was determined as 0.381.

Take CCCGGGUGUGCUUUCCGGUCUGAUGAGUCCGUGAGGACGAAACAG [A1C A6G]: the self-cleavage stood at 0.417.

With CCCGGCUGUGCUUUCCGGUCUGAUGAGUCCGUGAGGACGAAACAG [A1C A6C], the self-cleavage was 0.393.

On to CCCGGAUGUGCUUUCCGGUCUGCUGAGUCCGUGAGGACGAAACAG [A1C A23C], for which the self-cleavage amounted to 0.287.

Turning to CCCGGAUGUGCUUUCCGGUCUGGUGAGUCCGUGAGGACGAAACAG [A1C A23G], the self-cleavage came to 0.326.

Turning to CCCGGAUGUGCUUUCCGGUCUGUUGAGUCCGUGAGGACGAAACAG [A1C A23U], the self-cleavage worked out at 0.362.
